According to patent publication US20220372112A1 (KEYMED BIOSCIENCES, published 2022):

T1: human Claudin 18.2 (human, UniProt P56856-2 1-261)
T1 construct: whole, on cells
T1 sequence (looked up): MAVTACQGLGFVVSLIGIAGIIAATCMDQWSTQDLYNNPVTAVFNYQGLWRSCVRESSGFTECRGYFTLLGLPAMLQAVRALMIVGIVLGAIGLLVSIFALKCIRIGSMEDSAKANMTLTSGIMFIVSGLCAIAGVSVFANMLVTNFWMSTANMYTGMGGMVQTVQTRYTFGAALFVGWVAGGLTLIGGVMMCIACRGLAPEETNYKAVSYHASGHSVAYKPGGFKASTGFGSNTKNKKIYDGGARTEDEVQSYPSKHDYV

T2: human Claudin 18.1 (human, UniProt P56856 1-261)
T2 construct: whole, on cells
T2 sequence (looked up): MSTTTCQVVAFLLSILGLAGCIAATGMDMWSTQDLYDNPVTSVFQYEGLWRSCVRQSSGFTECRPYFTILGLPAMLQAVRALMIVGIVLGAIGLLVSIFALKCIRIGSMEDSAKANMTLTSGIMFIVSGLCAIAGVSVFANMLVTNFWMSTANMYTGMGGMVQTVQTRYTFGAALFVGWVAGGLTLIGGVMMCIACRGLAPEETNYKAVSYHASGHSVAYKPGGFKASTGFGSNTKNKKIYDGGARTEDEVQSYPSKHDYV


How the values were obtained:
[1] = biological target: T1, human Claudin 18.2; assay: flow cytometry (iQue) on HEK293-Claudin 18.2 cells, chimeric IgG1
Method: (§1) The HEK293-Claudin 18.1 cells, HEK293-Claudin 18.2 cells and HEK293 cells at logarithmic growth phase were taken, after digesting, added at 5×10⁴ cells/100 μL to the U-shaped 96-well plate, centrifuged at 1100 rpm for 3 minutes, the supernatant was discarded, the cells were gently patted and loosed, 50 μL of antibody diluted according to the series was added to each well (antibody concentration starts from 100 nM, 5 times dilution in 8 series), and incubate at 4° C. for 1 hour. After the incubation, 140 μL 0.5% BSA was added to each well to wash 3 times, the secondary antibody AlexaFluro647 anti-human IgG (Jackson ImmunoResearch, catalog number: 109-606-170) was added with 30 μL/well, and incubated at 4° C. for 40 minutes. After the incubation, 140 μL 0.5% BSA was added to each well to wash 3 times, and finally resuspended each well with 50 μL PBS for flow cytometry (iQue Screener) detection.

[2] = biological target: T2, human Claudin 18.1; assay: flow cytometry on HEK293-Claudin 18.1 cells, chimeric IgG1
Method: as §1

[3] = biological target: T1, human Claudin 18.2; assay: flow cytometry (iQue) on cells, antibody from 100 nM in 5-fold steps; cell line not named in Example 5
Method: The cells at logarithmic growth phase were taken, blocked with 3% BSA for 30 minutes, plated at 5×10⁴ cells/100 μL into a U-shaped 96-well plate, centrifuged at 1100 rpm for 3 minutes, the supernatant was discarded, the cells were gently patted and loosed, 50 μL of antibody diluted according to the series was added to each well (antibody concentration starts from 100 nM, 5 times dilution in 8 series), incubated at 4° C. for 1 hour. After the incubation, 140 μL of 0.5% BSA was added to each well to wash 3 times, AF 647 APC anti-human secondary antibody was added with 30 μL/well and incubated at 4° C. for 40 minutes. After the incubation, 140 μL of 0.5% BSA was added to each well to wash 3 times, and finally resuspended each well with 50 μL PBS for iQue (Intellicyt, USA) detection (shown in Table 2).

Binder | EC50 [1] [nM] | EC50 [3] [nM] | binding result [2]
18G5 (antibody, V domains shown, also called Clone 18G5) VH: EVQLQQSGREVVRPGTSVKVSCKPSGYAFTNYLIDWVKQRPGQGLEWIGGINPGSGDTVYNEKFKAKATLTADKSSMTTNMQLSSLTSDDSAVYFCARRVRGNSFDSWGQGTLVTVSA VL: DIVMTQSPSSLTVRAGEKVTMTCKSSQSLFNSGNQRNYLTWYQQKPGQPPKLLLYWATARESGVPDRFTGSGSGTDFTLSISSVQAEDLAVYYCQNVYFYPLTFGAGTKLEIK | 3.79 |  | no binding (tested: 100 nM (highest concentration tested))
8C11 (antibody, V domains shown, also called Clone 8C11) VH: QVQLQQSGAELVKPGASVKLSCKASGYTFTTFGINWVRQRPEQGLEWIGWIFPGDGSIKYNEKFKGKATLTTDKSSSTAYMQISSLTSEDSAVYFCARFYYGNSFVSWGQGTLVTVSA VL: DIVMTQSPSSLAVTAGEKVTMTCKSSQSLLNSGNQKNYLTWYQQRPGQPPKLLLYWASTRESGVPDRFTGSGSGTDFALTITSVQAEDLAVYYCQNDYTYPFTFGSGTKLEIK | 0.23 |  | no binding (tested: 100 nM (highest concentration tested))
9C9 (antibody, V domains shown, also called Clone 9C9) VH: EVQLKESGPGLVAPSQSLSITCTVSGFSLTNYGVSWIRQPPGKGLEWLGAIWAGGNTNYNSALMSRLSIRKDNSKSQVFLKMNSLQTDDTAMYYCARVGYGNSFANWGQGTLVTVSA VL: DIVMTQSPSSLTVTAGEKVTLSCKSSQTLLNSGNQKNYLTWYQQKPGQPPKLLIYWASTRESGVPDRFTGSGSGTDFTLTISSVQAEDLAVYYCQNNYFYPLTFGAGTRLEIK | 1.46 |  | no binding (tested: 100 nM (highest concentration tested))
25F5 (antibody, V domains shown, also called Clone 25F5) VH: QVQLKQSGAELVKPGASLKLSCKASGYTFTTYGINWVRQRPEQGLEWIGWIFPGDATTMYNEKFKGTATLTADKSSSTAYMQLSGLTSEDSAVYFCARFYYGNSFVDWGQGTLVTVSA VL: DIVMTQSPSSLTVTAGEKVTMSCKSSQSLLNSGNQKNYLTWYQQKPGQPPKLLIYWASTRESGVPDRFTGSGSGTDFTLTISSVQAEDLAVYYCQNAYYYPLTFGAGTKLEIK | 2.14 |  | no binding (tested: 100 nM (highest concentration tested))
15A7 (antibody, V domains shown, also called Clone 15A7) VH: QVQLQQSGAELVKPGYSVKLSCKASGYTFTNFGINWVRQRPEKGLEWIGWIFPGDGTTKYNENFKGKATLTTDKSSSTAYMQLSRLTSEDSAVYFCARFYYGNSFVNWGQGTLVTVSA VL: DIVMTQSPSSLTVTAGEKVTLSCKSSQTLLNSGNQKNYLTWYQQKPGQPPKLLIHWASTRESGVPDRFTGSGSGTDFTLTISSVQAEDLAVYYCQNNYFYPLTFGAGTKLEIK | 0.59 |  | no binding (tested: 100 nM (highest concentration tested))
18A9 (antibody, V domains shown, also called Clone 18A9; 18A9 Chimera) VH: QVQLQQSGREVVRPGTSVKVSCKPSGYAFTNYLIDWVKQRPGQGLEWIGGINPGSGDTVYNEKFKAKATLTADKSSMTANMQLSSLTSDDSAVYFCARRVRGNSFDSWGQGTLVTVSA VL: DIVMSQSPSSLTVTAGEKVTMSCKSSQSLLNSGNQKNYLTWYQQKPGQPPKLLIYWASTRESGVPDRFTGSGSGKDFTLTISSVQAEDLALYYCQNNYFYPLTFGAGTKLELK | 0.31 | 1.03 | no binding (tested: 100 nM (highest concentration tested))
13A8 (antibody, V domains shown, also called Clone 13A8) VH: EVKLVESGGGLVRPGGSLKVSCAASGITFSRYAISWVRQTPEKRLEWVATISSGDSYTYYLDSVKGRFTISRDDAKNTLYLQMSSLRSEDTAMYYCGRLGYGNAMDYWGQGTSVTVSS VL: NIMMTQSPSSLTVTAGEKVTMSCKSSQSLLNSGNQKNYLTWYQQKPGQPPKLLIYWASTRESGVPDRFTGSGSGTDFTLTISSVQAEDLAVYYCQNDYSYPLTFGAGTKLEIK | 0.25 |  | no binding (tested: 100 nM (highest concentration tested))
9D12 (antibody, V domains shown, also called Clone 9D12) VH: EVQLQQSGREVVRPGTSVKVSCKPSGYAFTNYLIDWVKQRPGQGLEWIGGINPGSGDTVYNERFKDKATLTADKSSSSANMQLSSLTSDDSAVYFCARRVRGNSFDSWGQGTLVTVSA VL: DIVMTQSPSSLTVTAGQKVTMSCKSSQSLLNSGNQKNYLTWYQQKPGQPPKLLIYWASTRESGVPDRFTGSGSGKDFTLTISSVQAEDLAVFYCQNNYFYPLTFGAGTKLELK | 6.78 |  | no binding (tested: 100 nM (highest concentration tested))

The next binders have a lower EC50 [1] than those just listed; values first:

EC50 [1] [nM] | EC50 [3] [nM] | Binder | binding result [2]
0.22 |  | 14H11 (antibody, V domains shown, also called Clone 14H11) VH: EVQLVESGGGLVKPGGSLKLSCAVSGFTINNYGMSWVRQTPEKRLEWVATIIGGGSSTYYPDSLKGRFTISRDNAKNNLYLQMSSLRSEDTALYYCVRLYFGNSFAYWGQGTLVTVSA VL: DIVMTQSPSSLTVTAGEKVTVSCKSSQSLSNSGNQRNYLTWYQQKPGQPPKLLIYWASTRESGVPDRFTGSGSGTDFTLTISSVQAEDLAVYYCQNNYFYPLTFGAGTKLELK | no binding (tested: 100 nM (highest concentration tested))
0.21 |  | 15D11 (antibody, V domains shown, also called Clone 15D11) VH: QVQLQQSGPGLVAPSQSLSITCTVSGFSLTNYGVSWIRQPPGKGLEWLGAIWAGGNTNYNSALMSRLSIRKDNSKSQVFLKMNSLQTDDTAMYYCARVGYGNSFANWGQGTLVTVSA VL: DIVMTQSPSSLTVTAGEKVTMSCKSSQSLLNSGNLRNYLTWYQQKPGRPPKLLIYWASTRESGVPDRFTGSGSGTDFTLTISSVQAEDLAVYYCQNNYFYPLTFGAGTKLELK | no binding (tested: 100 nM (highest concentration tested))
0.21 |  | 9A8 (antibody, V domains shown, also called Clone 9A8) VH: QVQLQQSGREVVRPGTSVKVSCKPSGYAFTNYLIDWVKQRPGQGLEWIGGINPGSGDTVYNEKFKAKATLTADKSSMTANMQLSSLTSDDSAVYFCARRVRGNSFDSWGQGTLVTVSA VL: DIQMTQSPSSLTVTAGEKVTMSCKSSQSLLNSGNQRNYLTWYQQKTGQPPKLLIYWASTRESGVPDRFTGSGSGTDFTLTINSVQAEDLAVYYCQNNYYYPLTFGAGTKLEIK | no binding (tested: 100 nM (highest concentration tested))
0.2 |  | 19B2 (antibody, V domains shown, also called Clone 19B2) VH: QVQLQQSGAELVKPGTSVKLSCKASGYSFTTYGLNWVRQRPKQGLEWIGWIFPGDGNVNYNEKFQGQATLTTDKSSSTAYMQLSRLTSEDSAVYFCARFYYGNSLNYWGQGTLVTVSA VL: DIVMTQSPSSLTVTAGEKVTMSCKSSQSLLNSGNLRNYLTWYQQKPGRPPKLLIYWASTRESGVPDRFTGSGSGTDFTLTISSVQAEDLAVYYCQNNYFYPLTFGAGTKLEIK | no binding (tested: 100 nM (highest concentration tested))
0.19 |  | 25A5 (antibody, V domains shown, also called Clone 25A5) VH: EVQLKESGPGLVAPSQSLSITCTVSGFSLTNYGVSWIRQPPGKGLEWLGAIWAGGNTNYNSALMSRLSIRKDNSKSQVFLKMNSLQTDDTAMYYCARVGYGNSFANWGQGTLVTVSA VL: DIVMTQSPSSLTVTAGEKVTMSCKSSQSLLNSGNQRNYLTWYQQKPGQPPKLLIYWASTRESGIPDRFIGSGSGTDFTLTISSVQAEDVSVYYCQNNYIFPLTFGAGTKLEIK | no binding (tested: 100 nM (highest concentration tested))
0.17 | 3.32 | 15F9 (antibody, V domains shown, also called Clone 15F9; 15F9 Chimera) VH: EIQLVQSGPELKKPGETVKISCKASGYTFTNYGINWVKQAPGKGLKWMGWINPNTGETTYAEEFKGRFALSWKTSASTAYLQINNLKNEDTATYFCARLYYGNRFDYWGQGTTLTVSS VL: DIVMTQSPSSLTVTAGEKVTMSCKSSQSLLNSGNQRNYLTWYQQKPGQPPKLLIYWASTRESGVPDRFTGSGSGTDFTLTISSVQAEDLAVYYCQNAYYYPLTFGAGTKLEIK | no binding (tested: 100 nM (highest concentration tested))
